Assay results: patent publication US7998688B2, “Inhibition of EMT induction in tumor cells by anti-cancer agents” (OSI Pharmaceuticals, LLC, priority 2008, dated 2011)
Where two headings read alike, the source gives them in different places.

Key:
[1] = phase III, first-line, in combination with gemcitabine, pancreatic cancer; cited from earlier work
[2] = phase III, monotherapy, patients with advanced, treatment-refractory NSCLC; cited from earlier work
[3] = tested on: H358 NSCLC cells; experiment: TGFβ3 induction of EMT in H358 NSCLC cells (western blot); type: cell-based, human; settings: TGFβ3 1 nM, 7 days (FIG. 1)
Description: FIG. 1: TGFβ3 induces EMT in H358 NSCLC cells. H358 cells were treated with TGFβ3 (1 nM, 7 days) in the presence or absence of the TGFβ receptor kinase inhibitor SB43 1542. Protein extracts were analyzed by western blot using the indicated antibodies.
Western blot analysis: For western blot analysis in H358 cells, cells were harvested 72 hrs after the addition of TGFβ3 addition (5 and 3 days after first and second siRNA transfections). For western blot analysis in HCT116/tet-on/Snail-Flag cells, cells were harvested 24 hours after Dox addition. […] Cell lysates were cleared of insoluble material by centrifugation at 15,000×g for 5 minutes at 4° C. Protein concentrations were measured in the resultant supernatant using the BCA protein analysis kit ([…].; 23225). 15 ug total lysate was used for SDS-PAGE followed by immunoblotting with the appropriate antibodies. The following antibodies were used: E-cadherin (Cell Signaling, Beverly, Mass.; 3195), vimentin (BD Biosciences, San Jose, Calif.; 550513), ErbB3 (Santa Cruz Biotechnology, Santa Cruz, Calif.; sc285), PAK1 (Cell Signaling, 2062), PAK2 (Cell Signaling, 2068), Flag (Sigma, F3165), ZEB1 (Santa Cruz, sc25388), N-Cadherin (Santa Cruz, sc7939), Fibronection (BD, 610078), β-action (Sigma, A1978).

[4] = tested on: H358 cells; experiment: TaqMan quantitative RT-PCR of ZEB1 and Snail mRNA in TGFβ3-treated H358 cells; type: cell-based, human; settings: H358 cells without PAK knockdown, 72 h post-TGFβ3, TaqMan (FIG. 4)
Description: siRNA knockdown and TGFβ3 treatment: For PAK1 and PAK2 siRNA knockdown in H358 cells, cells were seeded at a density of 5×10^4 cells/well in 6-well dishes. Next day, the cells were transfected using Lipofectamine 2000 (Invitrogen, 11668-019) with 62.5 nM PAK1 (Invitrogen; validated stealth siRNAduplex2, 12936-54) 62.5 nM PAK2 (Invitrogen; validated stealth siRNA duplex 1, 12936-55), 62.5 nM PAK1 & 62.5 nM PAK2 siRNA, or 62.5 nM negative control (Invitrogen, 12935-300) according to the manufacturer's instructions. Transfection reagent was replaced 4 hours post transfection with fresh media. The cells were re-transfected as above 48 hrs after initial transfection. 4 hours post-transfection, the transfection reagent was replaced with fresh media plus or minus 10 nM TGFβ3.
RNA isolation and TaqMan analysis: For TaqMan analysis, total RNA was isolated 72 hours after TGFβ3 treatment of H358 cells (5 and 3 days after first and second siRNA transfections). SuperArray's (SuperArray Bioscience Corp. Frederick, Md. 21704, USA) Total RNA Isolation Kit (GA-013) was used. Subsequently first strand cDNAs were made using RT PCR Array First Strand Kit (SuperArray; C-02). Quantitative-RT-PCR analyses were performed using Taqman Gene Expression Assays (Applied Biosystems, Foster City, Calif.) for PAK1, PAK2, Zeb1, and Snail.

| Molecule | survival [1] | disease progression [2] | survival [2] | worsening of lung cancer-related symptoms [2] | expression of epithelial markers (E-cadherin and ErbB3) [3] | expression of mesenchymal markers (vimentin, N-cadherin, and fibronectin) [3] | protein levels of the EMT driver ZEB1 [3] | Snail mRNA induction by TGFβ3 [4] | ZEB1 mRNA induction by TGFβ3 [4] |
| --- | --- | --- | --- | --- | --- | --- | --- | --- | --- |
| C#Cc1cccc(Nc2ncnc3cc(OCCOC)c(OCCOC)cc23)c1 [erlotinib, [6,7-bis(2-methoxyethoxy)-4-quinazolin-4-yl]-(3-ethynylphenyl) amine] | improves survival | delayed disease progression | significantly prolonged survival | delayed worsening of lung cancer-related symptoms |  |  |  |  |  |
| TGFβ3: Human recombinant mature TGF-beta3 prepared and purified at OSI Pharmaceuticals; EMT inducer (protein, UniProt P10600 301-412, looked up, Transforming growth factor beta-3, Human recombinant mature TGF-beta3 prepared and purified at OSI Pharmaceuticals; EMT inducer) Transforming growth factor …: ALDTNYCFRNLEENCCVRPLYIDFRQDLGWKWVHEPKGYYANFCSGPCPYLRSADTTHSTVLGLYNTLNPEASASPCCVPQDLEPLTILYYVGRTPKVEQLSNMVVKSCKCS |  |  |  |  | downregulating the expression of epithelial markers (E-cadherin and ErbB3) | upregulating that of mesenchymal markers (vimentin, N-cadherin, and fibronectin) | increase in the protein levels of the EMT driver ZEB1 | ~2.8 fold | 6 fold |
